Experimental data published in IntAct's records for PubMed 25910212.

B1: Neutrophil cytosol factor 2 (Homo sapiens), P19878 (parent)
chain: MSLVEAISLWNEGVLAADKKDWKGALDAFSAVQDPHSRICFNIGCMYTILKNMTEAEKAFTRSINRDKHLAVAYFQRGMLYYQTEKYDLAIKDLKEALIQLRGNQLIDYKILGLQFKLFACEVLYNIAFMYAKKEEWKKAEEQLALATSMKSEPRHSKIDKAMECVWKQKLYEPVVIPVGKLFRPNERQVAQLAKKDYLGKATVVASVVDQDSFSGFAPLQPQAAEPPPRPKTPEIFRALEGEAHRVLFGFVPETKEELQVMPGNIVFVLKKGNDNWATVMFNGQKGLVPCNYLEPVELRIHPQQQPQEESSPQSDIPAPPSSKAPGRPQLSPGQKQKEEPKEVKLSVPMPYTLKVHYKYTVVMKTQPGLPYSQVRDMVSKKLELRLEHTKLSYRPRDSNELVPLSEDSMKDAWGQVKNYCLTLWCENTVGDQGFPDEPKESEKADANNQTTEPQLKKGSQVEALFSYEATQPEDLEFQEGDIILVLSKVNEEWLEGECKGKVGIFPKVFVEDCATTDLESTRREV
B2: U4/U6 small nuclear ribonucleoprotein Prp31 (Homo sapiens), Q8WWY3 (parent)
chain: MSLADELLADLEEAAEEEEGGSYGEEEEEPAIEDVQEETQLDLSGDSVKTIAKLWDSKMFAEIMMKIEEYISKQAKASEVMGPVEAAPEYRVIVDANNLTVEIENELNIIHKFIRDKYSKRFPELESLVPNALDYIRTVKELGNSLDKCKNNENLQQILTNATIMVVSVTASTTQGQQLSEEELERLEEACDMALELNASKHRIYEYVESRMSFIAPNLSIIIGASTAAKIMGVAGGLTNLSKMPACNIMLLGAQRKTLSGFSSTSVLPHTGYIYHSDIVQSLPPDLRRKAARLVAAKCTLAARVDSFHESTEGKVGYELKDEIERKFDKWQEPPPVKQVKPLPAPLDGQRKKRGGRRYRKMKERLGLTEIRKQANRMSFGEIEEDAYQEDLGFSLGHLGKSGSGRVRQTQVNEATKARISKTLQRTLQKQSVVYGGKSTIRDRSSGTASSVAFTPLQGLEIVNPQAAEKKVAEANQKYFSSMAEFLKVKGEKSGLMST
partner: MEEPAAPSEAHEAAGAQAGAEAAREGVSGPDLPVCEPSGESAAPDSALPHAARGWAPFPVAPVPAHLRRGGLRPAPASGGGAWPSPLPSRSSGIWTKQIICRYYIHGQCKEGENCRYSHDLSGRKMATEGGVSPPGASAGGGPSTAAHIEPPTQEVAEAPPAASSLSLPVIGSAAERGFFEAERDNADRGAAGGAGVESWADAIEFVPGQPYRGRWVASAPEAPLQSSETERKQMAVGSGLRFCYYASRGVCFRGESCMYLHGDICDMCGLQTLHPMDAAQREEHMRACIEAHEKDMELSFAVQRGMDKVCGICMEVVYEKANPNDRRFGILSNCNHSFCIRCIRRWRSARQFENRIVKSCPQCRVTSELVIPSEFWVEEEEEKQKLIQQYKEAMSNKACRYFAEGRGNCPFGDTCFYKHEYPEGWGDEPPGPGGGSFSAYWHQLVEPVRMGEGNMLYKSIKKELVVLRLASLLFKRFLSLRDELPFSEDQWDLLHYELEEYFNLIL
B3: Progranulin (Homo sapiens), P28799 (parent)
chain: MWTLVSWVALTAGLVAGTRCPDGQFCPVACCLDPGGASYSCCRPLLDKWPTTLSRHLGGPCQVDAHCSAGHSCIFTVSGTSSCCPFPEAVACGDGHHCCPRGFHCSADGRSCFQRSGNNSVGAIQCPDSQFECPDFSTCCVMVDGSWGCCPMPQASCCEDRVHCCPHGAFCDLVHTRCITPTGTHPLAKKLPAQRTNRAVALSSSVMCPDARSRCPDGSTCCELPSGKYGCCPMPNATCCSDHLHCCPQDTVCDLIQSKCLSKENATTDLLTKLPAHTVGDVKCDMEVSCPDGYTCCRLQSGAWGCCPFTQAVCCEDHIHCCPAGFTCDTQKGTCEQGPHQVPWMEKAPAHLSLPDPQALKRDVPCDNVSSCPSSDTCCQLTSGEWGCCPIPEAVCCSDHQHCCPQGYTCVAEGQCQRGSEIVAGLEKMPARRASLSHPRDIGCDQHTSCPVGQTCCPSLGGSWACCQLPHAVCCEDRQHCCPAGYTCNVKARSCEKEVVSAQPATFLARSPHVGVKDVECGEGHFCHDNQTCCRDNRQGWACCPYRQGVCCADRRHCCPAGFRCAARGTKCLRREAPRWDAPLRDPALRQLL
partner: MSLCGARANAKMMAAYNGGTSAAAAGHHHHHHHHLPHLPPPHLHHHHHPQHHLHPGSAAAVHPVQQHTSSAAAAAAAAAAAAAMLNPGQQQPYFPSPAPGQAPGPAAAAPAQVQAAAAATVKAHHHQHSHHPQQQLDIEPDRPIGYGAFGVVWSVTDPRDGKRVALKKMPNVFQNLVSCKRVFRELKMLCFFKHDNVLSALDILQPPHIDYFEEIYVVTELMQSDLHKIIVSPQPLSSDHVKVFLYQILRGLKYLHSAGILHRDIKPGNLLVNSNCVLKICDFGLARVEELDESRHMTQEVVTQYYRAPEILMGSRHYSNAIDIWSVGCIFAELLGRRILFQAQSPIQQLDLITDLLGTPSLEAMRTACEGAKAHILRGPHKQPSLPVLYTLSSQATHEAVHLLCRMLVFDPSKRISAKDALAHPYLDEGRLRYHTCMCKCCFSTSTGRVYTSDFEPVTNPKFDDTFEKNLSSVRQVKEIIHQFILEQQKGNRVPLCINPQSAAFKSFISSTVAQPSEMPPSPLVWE
B4: Myozenin-2 (Homo sapiens), Q9NPC6 (parent)
chain: MLSHNTMMKQRKQQATAIMKEVHGNDVDGMDLGKKVSIPRDIMLEELSHLSNRGARLFKMRQRRSDKYTFENFQYQSRAQINHSIAMQNGKVDGSNLEGGSQQAPLTPPNTPDPRSPPNPDNIAPGYSGPLKEIPPEKFNTTAVPKYYQSPWEQAISNDPELLEALYPKLFKPEGKAELPDYRSFNRVATPFGGFEKASRMVKFKVPDFELLLLTDPRFMSFVNPLSGRRSFNRTPKGWISENIPIVITTEPTDDTTVPESEDL
B5: ATP synthase mitochondrial F1 complex assembly factor 2 (Homo sapiens), Q8N5M1 (parent)
chain: MWRSCLRLRDGGRRLLNRPAGGPSASMSPGPTIPSPARAYAPPTERKRFYQNVSITQGEGGFEINLDHRKLKTPQAKLFTVPSEALAIAVATEWDSQQDTIKYYTMHLTTLCNTSLDNPTQRNKDQLIRAAVKFLDTDTICYRVEEPETLVELQRNEWDPIIEWAEKRYGVEISSSTSIMGPSIPAKTREVLVSHLASYNTWALQGIEFVAAQLKSMVLTLGLIDLRLTVEQAVLLSRLEEEYQIQKWGNIEWAHDYELQELRARTAAGTLFIHLCSESTTVKHKLLKE
partner: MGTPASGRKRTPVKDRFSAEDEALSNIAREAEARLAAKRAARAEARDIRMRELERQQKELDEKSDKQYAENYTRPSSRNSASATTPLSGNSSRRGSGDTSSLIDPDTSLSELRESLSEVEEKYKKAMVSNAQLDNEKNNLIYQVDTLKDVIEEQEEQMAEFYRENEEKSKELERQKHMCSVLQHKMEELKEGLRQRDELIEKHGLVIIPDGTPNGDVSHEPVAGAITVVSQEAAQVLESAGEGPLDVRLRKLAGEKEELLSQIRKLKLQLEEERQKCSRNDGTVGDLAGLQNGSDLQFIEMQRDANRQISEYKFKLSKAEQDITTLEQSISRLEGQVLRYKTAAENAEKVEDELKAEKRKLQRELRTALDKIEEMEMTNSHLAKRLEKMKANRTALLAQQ

Variants of: B1
Settings: with goga2_human GOLGA2, Q08379
Chain of goga2_human GOLGA2, Q08379 (Q08379 whole entry): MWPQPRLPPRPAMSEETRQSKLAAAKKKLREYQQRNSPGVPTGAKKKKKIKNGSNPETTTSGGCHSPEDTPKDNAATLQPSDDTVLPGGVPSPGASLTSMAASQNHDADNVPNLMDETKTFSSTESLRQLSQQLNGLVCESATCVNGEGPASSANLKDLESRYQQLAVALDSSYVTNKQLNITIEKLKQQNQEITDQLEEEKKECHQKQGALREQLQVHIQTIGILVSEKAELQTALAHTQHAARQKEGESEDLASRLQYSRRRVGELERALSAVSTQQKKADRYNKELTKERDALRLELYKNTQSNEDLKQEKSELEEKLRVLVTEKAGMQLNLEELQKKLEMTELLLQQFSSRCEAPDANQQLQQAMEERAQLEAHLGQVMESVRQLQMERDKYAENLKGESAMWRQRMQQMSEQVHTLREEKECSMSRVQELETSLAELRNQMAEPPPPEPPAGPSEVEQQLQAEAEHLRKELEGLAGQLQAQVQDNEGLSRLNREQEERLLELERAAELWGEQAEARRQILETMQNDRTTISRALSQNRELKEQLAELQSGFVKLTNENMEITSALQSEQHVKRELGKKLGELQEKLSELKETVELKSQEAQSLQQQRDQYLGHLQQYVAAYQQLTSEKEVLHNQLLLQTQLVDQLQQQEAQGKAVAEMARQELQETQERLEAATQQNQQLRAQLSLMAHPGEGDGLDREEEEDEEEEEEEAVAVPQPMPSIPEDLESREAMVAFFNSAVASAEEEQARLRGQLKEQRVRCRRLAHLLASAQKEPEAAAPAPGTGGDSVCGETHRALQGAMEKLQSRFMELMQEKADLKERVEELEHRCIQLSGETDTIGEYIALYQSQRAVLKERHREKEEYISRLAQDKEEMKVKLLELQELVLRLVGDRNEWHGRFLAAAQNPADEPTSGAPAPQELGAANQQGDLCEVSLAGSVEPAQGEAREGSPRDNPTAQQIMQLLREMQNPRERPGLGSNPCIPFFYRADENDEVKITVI

effect of a mutation on the interaction	Variant
disrupting interaction strength	G78E
with no effect	R395W
with no effect	N419I

Variants of: B1
Settings: with kifa3_human KIFAP3, Q92845
Chain of kifa3_human KIFAP3, Q92845 (Q92845 whole entry): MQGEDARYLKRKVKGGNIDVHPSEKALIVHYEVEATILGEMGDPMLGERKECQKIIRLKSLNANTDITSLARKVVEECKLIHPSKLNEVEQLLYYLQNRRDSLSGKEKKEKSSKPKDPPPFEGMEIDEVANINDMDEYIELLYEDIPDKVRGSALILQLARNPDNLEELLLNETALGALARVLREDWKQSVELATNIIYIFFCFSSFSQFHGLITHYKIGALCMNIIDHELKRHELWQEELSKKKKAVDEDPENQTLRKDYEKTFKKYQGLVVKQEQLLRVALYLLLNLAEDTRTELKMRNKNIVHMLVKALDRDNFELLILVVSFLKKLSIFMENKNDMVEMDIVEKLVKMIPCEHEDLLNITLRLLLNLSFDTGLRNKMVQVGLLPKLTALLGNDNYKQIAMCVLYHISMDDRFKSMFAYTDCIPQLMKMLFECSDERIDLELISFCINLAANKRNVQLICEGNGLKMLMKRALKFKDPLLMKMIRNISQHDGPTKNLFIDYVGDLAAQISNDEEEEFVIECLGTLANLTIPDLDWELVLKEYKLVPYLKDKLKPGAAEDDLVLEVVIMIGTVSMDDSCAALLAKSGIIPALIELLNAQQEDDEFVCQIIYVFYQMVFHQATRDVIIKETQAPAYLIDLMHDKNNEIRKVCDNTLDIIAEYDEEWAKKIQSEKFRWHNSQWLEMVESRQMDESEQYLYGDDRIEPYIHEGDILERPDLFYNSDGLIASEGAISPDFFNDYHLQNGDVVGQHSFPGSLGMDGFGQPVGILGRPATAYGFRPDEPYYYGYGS

effect of a mutation on the interaction	Variant
disrupting interaction strength	G78E
with no effect	R395W
with no effect	N419I

Variants of: B2
Settings: with mkrn3_human MKRN3, Q13064

effect of a mutation on the interaction	Variant
with no effect	L107V

Variants of: B3
Settings: with nlk_human NLK

effect of a mutation on the interaction	Variant
disrupting interaction strength	P451L
disrupting interaction strength	A9D
with no effect	P248L
disrupting interaction strength	R432C

Variants of: B4
Settings: with actn2_human ACTN2, P35609
Chain of actn2_human ACTN2, P35609 (P35609 whole entry): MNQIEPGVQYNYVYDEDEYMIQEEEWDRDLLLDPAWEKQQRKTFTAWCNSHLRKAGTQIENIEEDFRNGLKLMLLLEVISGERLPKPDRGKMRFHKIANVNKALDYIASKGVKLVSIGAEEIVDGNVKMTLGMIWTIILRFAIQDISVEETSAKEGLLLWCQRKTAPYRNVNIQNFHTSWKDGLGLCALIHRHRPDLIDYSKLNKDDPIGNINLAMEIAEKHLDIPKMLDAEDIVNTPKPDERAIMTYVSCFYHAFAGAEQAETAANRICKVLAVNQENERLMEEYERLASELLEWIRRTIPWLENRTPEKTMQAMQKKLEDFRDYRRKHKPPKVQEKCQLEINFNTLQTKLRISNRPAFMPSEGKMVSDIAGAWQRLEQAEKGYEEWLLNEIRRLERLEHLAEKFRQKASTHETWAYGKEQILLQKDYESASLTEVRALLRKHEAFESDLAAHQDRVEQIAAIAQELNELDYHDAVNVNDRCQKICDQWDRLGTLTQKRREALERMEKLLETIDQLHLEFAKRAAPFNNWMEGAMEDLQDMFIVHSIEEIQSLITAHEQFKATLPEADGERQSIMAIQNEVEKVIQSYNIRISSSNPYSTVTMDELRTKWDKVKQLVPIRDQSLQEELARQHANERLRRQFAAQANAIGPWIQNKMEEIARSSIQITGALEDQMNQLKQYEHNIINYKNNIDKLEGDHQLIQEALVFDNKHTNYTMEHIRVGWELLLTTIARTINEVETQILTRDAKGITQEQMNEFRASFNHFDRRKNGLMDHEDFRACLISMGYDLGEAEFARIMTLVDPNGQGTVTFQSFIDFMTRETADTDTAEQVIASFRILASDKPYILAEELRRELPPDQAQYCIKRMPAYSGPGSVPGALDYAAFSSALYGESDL

effect of a mutation on the interaction	Variant
with no effect	Q10P
with no effect	S48P
with no effect	I246M

Variants of: B4
Settings: with actn1_human ACTN1, P12814
Chain of actn1_human ACTN1, P12814 (P12814 whole entry): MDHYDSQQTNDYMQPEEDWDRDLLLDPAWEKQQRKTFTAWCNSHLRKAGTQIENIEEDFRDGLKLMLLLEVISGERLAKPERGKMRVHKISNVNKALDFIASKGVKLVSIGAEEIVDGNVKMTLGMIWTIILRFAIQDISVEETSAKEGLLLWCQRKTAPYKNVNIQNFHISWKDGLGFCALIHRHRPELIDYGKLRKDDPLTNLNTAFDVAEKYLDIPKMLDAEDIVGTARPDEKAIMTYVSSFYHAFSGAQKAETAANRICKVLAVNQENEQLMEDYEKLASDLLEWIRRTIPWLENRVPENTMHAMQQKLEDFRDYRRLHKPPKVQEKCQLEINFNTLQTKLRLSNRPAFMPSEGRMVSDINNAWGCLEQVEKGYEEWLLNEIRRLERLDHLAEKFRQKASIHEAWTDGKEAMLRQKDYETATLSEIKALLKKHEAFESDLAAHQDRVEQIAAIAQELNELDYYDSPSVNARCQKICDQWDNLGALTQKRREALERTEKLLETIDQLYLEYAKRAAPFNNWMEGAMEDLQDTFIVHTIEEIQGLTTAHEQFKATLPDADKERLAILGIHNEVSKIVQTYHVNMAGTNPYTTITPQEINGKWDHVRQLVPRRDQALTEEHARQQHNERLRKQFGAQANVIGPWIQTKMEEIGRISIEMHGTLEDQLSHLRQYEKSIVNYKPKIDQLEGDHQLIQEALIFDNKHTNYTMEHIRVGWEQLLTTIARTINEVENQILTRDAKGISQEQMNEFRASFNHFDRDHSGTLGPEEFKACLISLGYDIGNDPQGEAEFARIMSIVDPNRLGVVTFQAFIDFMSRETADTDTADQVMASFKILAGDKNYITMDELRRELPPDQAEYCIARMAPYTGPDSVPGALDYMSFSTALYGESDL

effect of a mutation on the interaction	Variant
with no effect	Q10P
with no effect	S48P
with no effect	I246M

Variants of: B4
Settings: with actn4_human ACTN4, O43707
Chain of actn4_human ACTN4, O43707 (O43707 whole entry): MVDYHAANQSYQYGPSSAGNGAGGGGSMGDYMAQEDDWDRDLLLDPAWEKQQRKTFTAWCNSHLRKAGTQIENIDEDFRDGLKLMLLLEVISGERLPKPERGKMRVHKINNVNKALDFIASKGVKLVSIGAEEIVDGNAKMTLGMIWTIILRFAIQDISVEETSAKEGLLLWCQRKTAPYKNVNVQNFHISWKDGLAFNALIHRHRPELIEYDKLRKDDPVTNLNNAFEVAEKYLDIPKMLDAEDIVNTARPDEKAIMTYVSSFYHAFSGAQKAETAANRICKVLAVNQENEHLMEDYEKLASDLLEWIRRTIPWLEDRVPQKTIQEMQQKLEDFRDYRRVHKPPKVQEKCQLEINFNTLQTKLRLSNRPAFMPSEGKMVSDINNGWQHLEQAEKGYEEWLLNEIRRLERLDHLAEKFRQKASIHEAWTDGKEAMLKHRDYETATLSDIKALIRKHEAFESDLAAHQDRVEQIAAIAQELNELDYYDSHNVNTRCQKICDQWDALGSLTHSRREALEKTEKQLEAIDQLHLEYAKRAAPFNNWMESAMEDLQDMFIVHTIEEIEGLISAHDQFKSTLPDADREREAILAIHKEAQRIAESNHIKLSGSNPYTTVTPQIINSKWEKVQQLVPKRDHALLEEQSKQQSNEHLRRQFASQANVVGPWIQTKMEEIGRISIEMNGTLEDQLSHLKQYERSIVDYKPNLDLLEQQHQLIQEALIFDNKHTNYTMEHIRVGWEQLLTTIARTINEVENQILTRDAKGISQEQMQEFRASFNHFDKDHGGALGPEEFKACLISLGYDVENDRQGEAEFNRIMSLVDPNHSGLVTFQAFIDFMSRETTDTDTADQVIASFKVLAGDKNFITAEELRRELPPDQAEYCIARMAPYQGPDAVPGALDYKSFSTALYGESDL

effect of a mutation on the interaction	Variant
with no effect	Q10P
with no effect	S48P
with no effect	I246M

Variants of: B5
Settings: with LRRFIP2, Q9Y608-2

effect of a mutation on the interaction	Variant
disrupting interaction strength	W94R
